Experimental data reported in publication PMC11495376.

Experiments:
Conditions in all cases: EMSA per cited procedure (ref 27); buffer, salt, pH and temperature not given in the material
[1] = test system: T1, TarR (Bacillus velezensis FZB42), ORF:a9b72c09; assay: EMSA
T1 sequence: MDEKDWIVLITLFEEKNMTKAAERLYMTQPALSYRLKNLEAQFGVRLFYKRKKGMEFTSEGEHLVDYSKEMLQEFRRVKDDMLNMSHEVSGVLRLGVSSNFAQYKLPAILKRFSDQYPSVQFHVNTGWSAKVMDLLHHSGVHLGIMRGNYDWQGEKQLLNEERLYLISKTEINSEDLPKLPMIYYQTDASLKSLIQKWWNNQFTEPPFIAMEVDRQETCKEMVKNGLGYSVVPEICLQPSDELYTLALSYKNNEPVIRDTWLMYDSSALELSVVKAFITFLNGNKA

[2] = test system: T2, TarRN1-91 (Bacillus velezensis FZB42), ORF:46dabd2b; assay: EMSA?
T2 sequence: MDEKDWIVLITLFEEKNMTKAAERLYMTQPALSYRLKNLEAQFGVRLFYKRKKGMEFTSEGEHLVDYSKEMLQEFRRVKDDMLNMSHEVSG

[3] = test system: T1, TarR (Bacillus velezensis FZB42), ORF:a9b72c09; assay: DNase I footprinting

| Sequence | binding [1] | binding [2] | binding [3] |
| --- | --- | --- | --- |
| AGCGAAAATATTTTTTAAAAAAGTATTGACCTAGCAAACTGAAAATGTTATGATTAAGAGGTCGCTTCGAGAGAAGCAACAAAGTTCTTTGAAAACTAAACAAGACAAAACGTACCTGTTAATTCAAAGTTTTAAATAAATCGCACAGCGATGTGCGTAGTCAGTCAAACTAC (double strand) [P16S] | no binding | – | – |
| GCTGTCTCATCCTTACATCATTTTGTGTGGATAAAAAGGTACCGGTCCCTTTGGAAAATATCGTATGATAAATAAGGATTATAAGTAAAACATATAATTTTTATAAAGTTGAATAAAAAAAATTTATAATAAGAGAAAATTTTATAGCAGAAAAATATTTTGGGGGATTTCAT (double strand) [Ptar] | binds | binds | binds |
